Article PMC5913127
Each block holds one substance with its values, some of them ahead of it.

Key:
[1] = target: ^chaducanumab (murine chimeric IgG2a/kappa version of aducanumab) (human | murine); assay: ELISA; antibody (5 μg/mL) captured on coated goat anti-mouse IgG Fcγ antibody; serially diluted monomeric biotin-conjugated Aβ1-40 in PBS with 1% BSA; HRP-streptavidin detection
Aβ_(1-28) peptide = assay: SPR
Aβ_(1-16) peptide = Aβ_(1-16) peptide (UniProt P05067); assay: MST
[2] = target: dimeric Aβ_(1-15) multi-antigen peptide (MAP); assay: not stated; binding of antibody to branched multi-antigen peptides of Aβ1-15, EC50 (Fig. S5)

Sequence of Aβ_(1-28) peptide (P05067 672-699): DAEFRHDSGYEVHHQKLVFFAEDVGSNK

EC50 [1]: > 1000 nM
Substance: biotin-conjugated Aβ_(1-40) (Aβ_(1-40)-Lys-Biotin), monomeric (peptide)

Kd (Aβ_(1-28) peptide): 1300 nM
Kd (Aβ_(1-16) peptide): 96.6 nM
Substance: chgantenerumab

EC50 [2]: > 1000 nM
Substance: ^chaducanumab (murine chimeric IgG2a/kappa version of aducanumab) (antibody)
